Patent US11358986B2, “IL-2RBETA binding compounds” (MEDIKINE, INC., priority 2018, dated 2022)
Ends that are not written are not given here.

How the values were obtained:
[1] = molecular target: T1, extracellular domain (ECD) of IL-2Rβ (Homo sapiens, UniProt P14784); test: Competitive binding of synthetic test peptides against phage clones on immobilized IL-2Rβ ECD; conditions: for Competition with phage clone peptide SEQ ID NO: 58: phage clone of IL-2β family 1; for Competition with phage clone peptide SEQ ID NO: 170: phage clone of IL-2β family 2A; for Competition with phage clone peptide SEQ ID NO: 83: phage clone of IL-2β family 2B; for Competition with phage clone peptide SEQ ID NO: 1034 or 1084: phage clone of IL-2β family 2C; for Competition with phage clone peptide SEQ ID NO: 1044: phage clone of IL-2β family 4
T1 construct: Fc; purchased ACRObiosystems, Inc. ILB-H5253
T1 sequence (P14784 27-239): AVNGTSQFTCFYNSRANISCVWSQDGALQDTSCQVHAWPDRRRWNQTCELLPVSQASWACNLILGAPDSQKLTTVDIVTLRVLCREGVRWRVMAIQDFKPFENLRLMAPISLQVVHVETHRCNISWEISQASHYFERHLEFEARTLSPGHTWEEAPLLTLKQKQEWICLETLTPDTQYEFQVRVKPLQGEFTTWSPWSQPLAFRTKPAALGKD
Protocol: (§1) Competitive binding assays were performed to characterize the IL-2R binding sites for certain IL-2Rβ and to IL-2Rγc ligands.
Representative phage clones displaying peptides from IL-2Rβ ligand families were bound to the extracellular domain (ECD) of IL-2Rβ immobilized in microtiter wells. Phage binding was conducted in the presence and absence of synthetic test peptides to determine if phage peptides and test peptides competed for binding to the same sites on IL-2Rβ. Synthetic test peptides were selected to represent peptides from IL-2Rβ ligand families, as well positive and negative control peptides.
(§2) Phage binding to the immobilized IL-2Rβ ECD was detected by staining with antibody against phage coat proteins (anti-phage Ab), staining with labeled secondary antibody against the anti-phage Ab, and scored by reading OD in the microtiter plate optical reader.
(§3) The ELISA signal for each phage binding in the presence and absence of the test peptides was compared to determine which synthetic peptides competed with which phage peptides for binding to the IL-2Rβ subunit.

IL-2Rγc subunit = molecular target: T2, IL-2Rγc subunit (Homo sapiens, UniProt P31785); test: Competitive binding of synthetic test peptides against phage clones on IL-2Rγc; conditions: for Competition with phage clone peptide SEQ ID NO: 198: phage clone of IL-2Rγc family 1A; for Competition with phage clone peptide SEQ ID NO: 224: phage clone of IL-2Rγc family 1B; for Competition with phage clone peptide SEQ ID NO: 236: phage clone of IL-2Rγc family 2; for Competition with phage clone peptide SEQ ID NO: 248 or 1051: phage clone of IL-2Rγc family 3; for Competition with phage clone peptide SEQ ID NO: 266: phage clone of IL-2Rγc family 4; for Competition with phage clone peptide SEQ ID NO: 948: phage clone of IL-2Rγc family 5
T2 construct: Fc; purchased ACRObiosystems, Inc. ILG-H5256
T2 sequence (P31785 23-254): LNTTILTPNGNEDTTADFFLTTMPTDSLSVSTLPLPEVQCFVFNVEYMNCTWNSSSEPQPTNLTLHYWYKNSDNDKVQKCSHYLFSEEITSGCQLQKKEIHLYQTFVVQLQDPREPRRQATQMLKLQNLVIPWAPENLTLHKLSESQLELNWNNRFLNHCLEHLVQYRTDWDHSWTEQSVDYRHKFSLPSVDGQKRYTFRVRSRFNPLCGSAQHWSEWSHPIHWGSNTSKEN
Protocol: as §1, §2, §3
A similar study was performed to evaluate the binding of IL-2Rγc ligands.

NK-92 cells = test: STAT5 phosphorylation in NK-92 cells; format: cell-based, human; conditions: Western Blot, 0.1, 1 and 10 μM, 30 min
Protocol: NK-92 cells were seeded in a 24-well plate at 4×10^5 cells, in 1 mL starvation medium (SM), and incubated overnight at 37° C., 5% CO2. The starvation medium contained RPMI 1640+20% FBS+2 mM L-glutamine+1 mM NaPyr+10 mM HEPES+0.1 mM BME (no rhIL-2 supplement).
Treatment mixtures were of 1 pg/mL Anti-hIL-2 neutralizing antibody (0.2 mg/mL stock) or goat IgG control (1 mg/mL stock) were prepared.
The treatment mixtures and the antibody mix were added to the cells for 30 min at 37° C., 5% CO2. Each sample was then transferred to a 1.5 mL microfuge tube and spun down at 1,500 RPM for 5 minutes. The cells were washed in 1 mL PBS and centrifuged again.
A phosphatase and protease inhibitor cocktail (Thermo #78442) were added to mPER buffer at a 1:100 dilution. After the cells were pelleted, 50 μL of mPER buffer was added to each sample and pipetted repeatedly to homogenize.
The lysates were centrifuged at 14,000 RPM for 5 min at RT. The supernatants were transferred to clean tubes and stored frozen at −80° C.
The treatment reagents included Anti-STAT5 Antibody (rabbit), Cell Signaling No. 94205S; Anti-pSTAT5 Antibody (rabbit), Cell Signaling No. 4322S; and Goat anti-rabbit IgG-HRP, Jackson Immunoresearch No. 111-035-144.

| Competition with phage clone peptide SEQ ID NO: 58 [1] | Competition with phage clone peptide SEQ ID NO: 170 [1] | Competition with phage clone peptide SEQ ID NO: 83 [1] | Competition with phage clone peptide SEQ ID NO: 1034 or 1084 [1] | Competition with phage clone peptide SEQ ID NO: 1044 [1] | Competition with phage clone peptide SEQ ID NO: 198 (IL-2Rγc subunit) | Competition with phage clone peptide SEQ ID NO: 224 (IL-2Rγc subunit) | Competition with phage clone peptide SEQ ID NO: 236 (IL-2Rγc subunit) | Competition with phage clone peptide SEQ ID NO: 248 or 1051 (IL-2Rγc subunit) | Competition with phage clone peptide SEQ ID NO: 266 (IL-2Rγc subunit) | Competition with phage clone peptide SEQ ID NO: 948 (IL-2Rγc subunit) | Substance | other results |
| --- | --- | --- | --- | --- | --- | --- | --- | --- | --- | --- | --- | --- |
| + (Peptide competes with phage binding.) | + (Peptide competes with phage binding.) | + (Peptide competes with phage binding.) | + (Peptide competes with phage binding.) | − |  |  |  |  |  |  | 169 (NMCLVGDYWPSCQI) [Peptide 169] |  |
|  |  |  |  |  |  |  |  |  |  |  | Compound B: heterodimer of SEQ. ID. NO: 58 and SEQ ID. NO. 237 (chain 1 YDCRIAQVGELCDL; chain 2 LCFSEFLGEWVDCN; cysteine pairing not given here; also: heterodimer) | STAT5 phosphorylation (pSTAT5) (NK-92 cells): induced |
|  |  |  |  |  |  |  |  |  |  |  | 1041 (WESWNVGDLVNLVNW) [compound 1041] | competition for binding to the binding site of the IL-2Rβ subunit with the group of IL-2Rβ ligands [1]: does not compete |
|  |  |  |  |  |  |  |  |  |  |  | 224 (DCSMWEGVELCW) [compound 224] | competition for binding to the binding site of the IL-2Rβ subunit with the group of IL-2Rβ ligands [1]: does not compete |
|  |  |  |  |  | + (Peptide competes with phage binding.) | + (Peptide competes with phage binding.) | + (Peptide competes with phage binding.) | + (Peptide competes with phage binding.) | + (Peptide competes with phage binding.) | − | SEQ ID NO: 248 or 1051: IL-2Rγc family 3 test peptide, SEQ ID NO: 248 or its modified form SEQ ID NO: 1051 (DLSDLSTFWLSQ; not fully specified) |  |
|  |  |  |  |  |  |  |  |  |  |  | Compound A: heterodimer of SEQ. ID. NO: 58 and SEQ ID. NO. 224 (chain 1 YDCRIAQVGELCDL; chain 2 DCSMWEGVELCW; cysteine pairing not given here; also: heterodimer) | STAT5 phosphorylation (pSTAT5) (NK-92 cells): induced |
| −^2 | − | − | − | + (Peptide competes with phage binding.) |  |  |  |  |  |  | 1044 (RSCYYKRPRLWCSE) [Peptide 1044] |  |
| + (Peptide competes with phage binding.) | + (Peptide competes with phage binding.) | + (Peptide competes with phage binding.) | + (Peptide competes with phage binding.) | − |  |  |  |  |  |  | 1042 (CYEVGDYCQSPL) [Peptide 1042] |  |
|  |  |  |  |  |  |  |  |  |  |  | 58 (YDCRIAQVGELCDL) [compound 58] | competition for binding to the binding site of the IL-2Rγc subunit with the group of IL-2Rγc ligands (IL-2Rγc subunit): does not compete |
|  |  |  |  |  |  |  |  |  |  |  | 948 (SLLKCYNASTCASVF) [compound 948] | competition for binding to the binding site of the IL-2Rγc subunit with the group of IL-2Rγc ligands (IL-2Rγc subunit): does not compete |
|  |  |  |  |  |  |  |  |  |  |  | 1044 (RSCYYKRPRLWCSE) [compound 1044] | competition for binding to the binding site of the IL-2Rβ subunit with the group of IL-2Rβ ligands [1]: does not compete |
|  |  |  |  |  | + (Peptide competes with phage binding.) | + (Peptide competes with phage binding.) | + (Peptide competes with phage binding.) | + (Peptide competes with phage binding.) | + (Peptide competes with phage binding.) | − | 236 (MCWLEWGEWVGSCL) [Peptide 236] |  |
|  |  |  |  |  | −^2 | − | − | − | − | + (Peptide competes with phage binding.) | 948 (SLLKCYNASTCASVF) [Peptide 948] |  |
| − | − | − | − | − | + (Peptide competes with phage binding.) | + (Peptide competes with phage binding.) | + (Peptide competes with phage binding.) | + (Peptide competes with phage binding.) | + (Peptide competes with phage binding.) | − | 224 (DCSMWEGVELCW) [Peptide 224] |  |

| Substance | Competition with phage clone peptide SEQ ID NO: 58 [1] | Competition with phage clone peptide SEQ ID NO: 170 [1] | Competition with phage clone peptide SEQ ID NO: 83 [1] | Competition with phage clone peptide SEQ ID NO: 1034 or 1084 [1] | Competition with phage clone peptide SEQ ID NO: 1044 [1] | Competition with phage clone peptide SEQ ID NO: 198 (IL-2Rγc subunit) | Competition with phage clone peptide SEQ ID NO: 224 (IL-2Rγc subunit) | Competition with phage clone peptide SEQ ID NO: 236 (IL-2Rγc subunit) | Competition with phage clone peptide SEQ ID NO: 248 or 1051 (IL-2Rγc subunit) | Competition with phage clone peptide SEQ ID NO: 266 (IL-2Rγc subunit) | Competition with phage clone peptide SEQ ID NO: 948 (IL-2Rγc subunit) | other results |
| --- | --- | --- | --- | --- | --- | --- | --- | --- | --- | --- | --- | --- |
| 202 (RTCTEWENVVLCWV) [Peptide 202] |  |  |  |  |  | +^1 (Peptide competes with phage binding.) | + (Peptide competes with phage binding.) | + (Peptide competes with phage binding.) | + (Peptide competes with phage binding.) | + (Peptide competes with phage binding.) | − |  |
| 58 (YDCRIAQVGELCDL) [Peptide 58] | +^1 (Peptide competes with phage binding.) | + (Peptide competes with phage binding.) | + (Peptide competes with phage binding.) | + (Peptide competes with phage binding.) | − | − | − | − | − | − | − |  |
